Results on three molecules are retold here after PMC11909244, “Rice transcription factor bHLH25 confers resistance to multiple diseases by sensing H2O2”.

One data set concerns the target bHLH25 M256V (Oryza sativa (Nipponbare), UniProt Q5SMX4 1-439, M256V). The data set is described as follows: EMSA; 10 mM Tris-HCl pH 7.5, 50 mM KCl, 50 ng/mL poly(dI-dC), 1 mM DTT, ~0.5 ug GST protein in 10 uL, 0.5 uM pmiR397b-G-box or 0.1 uM pCPS2-N-box biotin probe; temperature not stated. As to conditions: protein: recombinant; tags: GST-SUMO; chain copies: 2; label: 5' biotin. For orientation: A gel shift assay detects complexes by their altered migration in electrophoresis.

Data set [1] has as its target T1, bHLH25 (Oryza sativa (Nipponbare), UniProt Q5SMX4 1-439). The data set is described as above. To be noted: protein: recombinant; tags: GST-SUMO (pGEX-6p-1-SUMO); chain copies: 2; label: 5' biotin.
Data set [2] addresses T1, bHLH25. The data set is described as follows: competition; unlabeled competitor of N1; 10 mM Tris-HCl pH 7.5, 50 mM KCl, 50 ng/mL poly(dI-dC), 1 mM DTT, ~0.5 ug GST protein in 10 uL, 0.5 uM pmiR397b-G-box or 0.1 uM pCPS2-N-box biotin probe; temperature not stated. As to conditions: protein: recombinant; tags: GST-SUMO (pGEX-6p-1-SUMO); chain copies: 2.

T1 sequence (Q5SMX4 entry or part of it): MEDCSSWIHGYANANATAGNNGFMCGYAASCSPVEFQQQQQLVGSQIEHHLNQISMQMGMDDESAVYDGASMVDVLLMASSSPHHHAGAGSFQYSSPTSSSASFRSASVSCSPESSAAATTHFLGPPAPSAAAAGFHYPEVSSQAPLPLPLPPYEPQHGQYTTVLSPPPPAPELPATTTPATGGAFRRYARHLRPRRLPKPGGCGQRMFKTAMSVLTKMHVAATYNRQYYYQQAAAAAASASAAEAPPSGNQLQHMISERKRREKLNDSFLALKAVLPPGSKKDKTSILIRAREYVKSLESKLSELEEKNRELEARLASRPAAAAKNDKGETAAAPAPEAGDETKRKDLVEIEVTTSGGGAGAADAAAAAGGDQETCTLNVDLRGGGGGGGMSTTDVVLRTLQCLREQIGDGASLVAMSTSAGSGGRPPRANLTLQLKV
Sequence of bHLH25 M256V (Q5SMX4 entry or part of it M256V | M256V M256V): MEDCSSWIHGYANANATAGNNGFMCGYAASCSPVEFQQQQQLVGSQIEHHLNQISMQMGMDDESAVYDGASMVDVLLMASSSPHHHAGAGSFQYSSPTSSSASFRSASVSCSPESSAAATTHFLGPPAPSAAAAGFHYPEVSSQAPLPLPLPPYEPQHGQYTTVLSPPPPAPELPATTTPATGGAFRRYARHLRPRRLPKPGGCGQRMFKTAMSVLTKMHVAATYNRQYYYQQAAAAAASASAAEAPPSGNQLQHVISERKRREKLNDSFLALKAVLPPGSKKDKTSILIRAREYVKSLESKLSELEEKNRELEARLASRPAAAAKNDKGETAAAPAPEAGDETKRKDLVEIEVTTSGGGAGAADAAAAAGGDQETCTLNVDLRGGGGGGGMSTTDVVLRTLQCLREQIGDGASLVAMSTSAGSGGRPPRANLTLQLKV

B1: bio-pCPS2-N-box (dsDNA)
DNA 1: TTTCACAATCACGAGCTAGACTAA
DNA 2: TTAGTCTAGCTCGTGATTGTGAAA
Take B1: the binding result in the data set with bHLH25 M256V is “no binding”; in the data set with bHLH25 [1] it was “binds”.

B2: com-pmiR397b-G-box (dsDNA)
DNA 1: GTACTTTGTCACGTCCTGATCGAT
DNA 2: ATCGATCAGGACGTGACAAAGTAC
Turning to B2, the binding result with bHLH25 [2] was “binds”.

B3: bio-pmiR397b-G-box (dsDNA)
DNA 1: GTACTTTGTCACGTCCTGATCGAT
DNA 2: ATCGATCAGGACGTGACAAAGTAC
For B3, the binding result with bHLH25 M256V is “no binding”; in the data set with bHLH25 [1] it was “binds”.
